Data as given in patent US20240327535A1 (EISAI R AND D MANAGEMENT, published 2024).
Residue numbers refer to the chain shown, from its start.

T1: extracellular domain of human BCMA (human, UniProt Q02223 1-54)
T1 construct: amine-linked to Octet AR2G tips; also called hsBCMA; BCMA (human)
T1 sequence: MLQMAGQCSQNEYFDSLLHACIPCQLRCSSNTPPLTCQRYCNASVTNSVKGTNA

B1: AB200-(2Vk31)_R2-VH-v5 (Fab, V domains shown)
VH: QVQLVQSGAEVKKPGSSVKVSCKASGGTFTNYWIHWVRQAPGQGLEWMGGTYRSHSDTYYNEKFKSRVTITADKSTSTAYMELSSLRSEDTAVYYCARGAIFHGYDVIDNWGQGTLVTVSS
VL: DIQMTQSPSSLSASVGDRVTITCRASQSISSYLNWYQQKPGKAPKLLIYATSNLQIGVPSRFSGSGSGTDFTLTISSLQPEDFATYYCQQFRRLPWTFGQGTKLEIKR
B2: AB200-(2Vk31)_R2-VH-v2 (Fab, V domains shown)
VH: B1 VH with G50A, D57T, Y59N, E62Q, I101V, F102Y
VL: B1 VL
B3: AB200-(2Vk31)_R2-CDR1-hs-v3 (Fab, V domains shown)
VH: B1 VH with T30S, N31S, W33A, H35S, G50A, H55Q, E62Q, F64Y, I101V, F102Y
VL: B1 VL
B4: AB200-(2Vk31)_R2-VH-v12 (Fab, V domains shown)
VH: B1 VH with F29Y, T30S, G50A, D57T, E62Q, F64Y, F102Y, Y105F
VL: B1 VL
B5: AB200-R1a-Fab_Vk3 (Fab, V domains shown)
VH: B1 VH with T30S, I34M, G50A, S54G, E62Q, S66G, F102Y, I108L
VL: DIQMTQSPSSLSASVGDRVTITCSASQDISNYINWYQQKPGKAPKLLIYYTSNMHSGVPSRFSGSGSGTDFTLTISSLQPEDFATYYCQQYRKLPWSFGQGTKLEIKR
B6: AB200-R1a-Fab_Vk12 (Fab, V domains shown)
VH: B1 VH with T30S, I34M, G50A, S54G, E62Q, S66G, F102Y, I108L
VL: B5 VL with I33L, T51A, S52T, M54L, K93R, S97T
B7: AB200-R1a-Fab_Vk21 (Fab, V domains shown)
VH: B1 VH with T30S, I34M, G50A, S54G, E62Q, S66G, F102Y, I108L
VL: B5 VL with I33L, M54L, Q89H, R92K, L94T, S97T
B8: AB200-R1a-Fab(hCDR1) (Fab, V domains shown)
VH: B1 VH with T30S, I34M, G50A, S54G, E62Q, S66G, F102Y, I108L
VL: B1 VL with A50Y, Q55H, I56S, F91Y, R93K
B9: AB200-R1a-Fab_Vk28 (Fab, V domains shown)
VH: B1 VH with T30S, I34M, G50A, S54G, E62Q, S66G, F102Y, I108L
VL: B5 VL with Y32F, I33L, K93S, S97T
B10: AB200-R1a-Fab_Vk18 (Fab, V domains shown)
VH: B1 VH with T30S, I34M, G50A, S54G, E62Q, S66G, F102Y, I108L
VL: B5 VL with S24T, I33L, N53D, M54L, S56I, S97T
B11: AB200-R1a-Fab_Vk22 (Fab, V domains shown)
VH: B1 VH with T30S, I34M, G50A, S54G, E62Q, S66G, F102Y, I108L
VL: B5 VL with S24R, I33L, M54L, K93S, L94I, S97T
B12: AB200-R1a-Fab_Vk26 (Fab, V domains shown)
VH: B1 VH with T30S, I34M, G50A, S54G, E62Q, S66G, F102Y, I108L
VL: B5 VL with I33L, T51S, N53S, M54L, S56I, S97T
B13: AB200-R1a-Fab_Vk36 (Fab, V domains shown)
VH: B1 VH with T30S, I34M, G50A, S54G, E62Q, S66G, F102Y, I108L
VL: B5 VL with I29L, I33L, M54L, H55Q, K93R, S97T
B14: AB200-R1a-Fab_Vk23 (Fab, V domains shown)
VH: B1 VH with T30S, I34M, G50A, S54G, E62Q, S66G, F102Y, I108L
VL: B5 VL with I33L, M54I, R92K, L94M, S97T
B15: AB200-R1a-Fab_Vk35 (Fab, V domains shown)
VH: B1 VH with T30S, I34M, G50A, S54G, E62Q, S66G, F102Y, I108L
VL: B5 VL with I29L, I33L, M54L, R92K, L94I, S97T
B16: AB200-R1a-Fab_Vk11 (Fab, V domains shown)
VH: B1 VH with T30S, I34M, G50A, S54G, E62Q, S66G, F102Y, I108L
VL: B5 VL with S24R, I29V, I33L, S52T, M54L, S97T
B17: AB200-R1a-Fab_Vk17 (Fab, V domains shown)
VH: B1 VH with T30S, I34M, G50A, S54G, E62Q, S66G, F102Y, I108L
VL: B5 VL with S26T, I33L, S52T, M54L, R92Y, S97T
B18: AB200-R1a-Fab(hCDR3) (Fab, V domains shown)
VH: B1 VH with T30S, I34M, G50A, S54G, E62Q, S66G, F102Y, I108L
VL: B5 VL with I33L, M54L, Y91S, R92Y, K93S, L94T, S97T
B19: AB200-R1a-Fab_Vk25 (Fab, V domains shown)
VH: B1 VH with T30S, I34M, G50A, S54G, E62Q, S66G, F102Y, I108L
VL: B5 VL with I33L, Y50A, T51A, M54L, L94I, S97T
B20: AB200-R1a-Fab_Vk32 (Fab, V domains shown)
VH: B1 VH with T30S, I34M, G50A, S54G, E62Q, S66G, F102Y, I108L
VL: B5 VL with I29L, I33L, N53S, M54L, L94T, S97T
B21: AB200-R1a-Fab_Vk2 (Fab, V domains shown)
VH: B1 VH with T30S, I34M, G50A, S54G, E62Q, S66G, F102Y, I108L
VL: B5 VL with D28E, I29V, I33L, M54L, Q90E, S97T
B22: AB200-R1a-Fab_Vk13 (Fab, V domains shown)
VH: B1 VH with T30S, I34M, G50A, S54G, E62Q, S66G, F102Y, I108L
VL: B5 VL with Q27N, I33L, T51S, N53D, M54L, S97T
B23: AB200-R1a-Fab_Vk34 (Fab, V domains shown)
VH: B1 VH with T30S, I34M, G50A, S54G, E62Q, S66G, F102Y, I108L
VL: B5 VL with Q27H, I33L, M54L, Q89H, Q90E, S97T
B24: AB200-R1a-Fab_Vk9 (Fab, V domains shown)
VH: B1 VH with T30S, I34M, G50A, S54G, E62Q, S66G, F102Y, I108L
VL: B5 VL with D28E, I33L, Y50A, M54L
B25: AB200-R1a-Fab_Vk4 (Fab, V domains shown)
VH: B1 VH with T30S, I34M, G50A, S54G, E62Q, S66G, F102Y, I108L
VL: B5 VL with S24T, S26T, S30T, I33L, M54L, S97T
B26: AB200-R1a-Fab_Vk19 (Fab, V domains shown)
VH: B1 VH with T30S, I34M, G50A, S54G, E62Q, S66G, F102Y, I108L
VL: B5 VL with Q27N, M54L, Y91F, S97T
B27: AB200-R1a-Fab_Vk10 (Fab, V domains shown)
VH: B1 VH with T30S, I34M, G50A, S54G, E62Q, S66G, F102Y, I108L
VL: B5 VL with D28S, I33L, M54L, Y91S, L94M, S97T
B28: AB200-R1a-Fab_Vk24 (Fab, V domains shown)
VH: B1 VH with T30S, I34M, G50A, S54G, E62Q, S66G, F102Y, I108L
VL: B5 VL with Q27N, D28S, I33L, T51A, M54L, S97T
B29: AB200-R1a-Fab_Vk14 (Fab, V domains shown)
VH: B1 VH with T30S, I34M, G50A, S54G, E62Q, S66G, F102Y, I108L
VL: B5 VL with I33L, T51S, Y91F, S97T
B30: AB200-R1a-Fab_Vk5 (Fab, V domains shown)
VH: B1 VH with T30S, I34M, G50A, S54G, E62Q, S66G, F102Y, I108L
VL: B5 VL with N31S, I33L, M54L, K93S, L94T, S97T
B31: AB200-R1a-Fab_Vk30 (Fab, V domains shown)
VH: B1 VH with T30S, I34M, G50A, S54G, E62Q, S66G, F102Y, I108L
VL: B5 VL with S24T, D28S, M54L, S97T
B32: AB200-R1a-Fab_Vk20 (Fab, V domains shown)
VH: B1 VH with T30S, I34M, G50A, S54G, E62Q, S66G, F102Y, I108L
VL: B5 VL with Y32F, I33L, N53D, M54L, R92Y, S97T
B33: AB200-R1a-Fab_Vk16 (Fab, V domains shown)
VH: B1 VH with T30S, I34M, G50A, S54G, E62Q, S66G, F102Y, I108L
VL: B5 VL with S30T, I33L, Y50A, M54L, Q90E, S97T
B34: AB200-R1a-Fab_Vk27 (Fab, V domains shown)
VH: B1 VH with T30S, I34M, G50A, S54G, E62Q, S66G, F102Y, I108L
VL: B5 VL with S30T, I33L, Y50F, M54L, R92Y, S97T
B35: AB200-R1a-Fab_Vk15 (Fab, V domains shown)
VH: B1 VH with T30S, I34M, G50A, S54G, E62Q, S66G, F102Y, I108L
VL: B5 VL with Q27H, D28E, I33L, N53S, M54L, S97T
B36: AB200-R1a-Fab_Vk31 (Fab, V domains shown)
VH: B1 VH with T30S, I34M, G50A, S54G, E62Q, S66G, F102Y, I108L
VL: B5 VL with I33L, M54I, S56I
B37: AB200-R1a-Fab_Vk6 (Fab, V domains shown)
VH: B1 VH with T30S, I34M, G50A, S54G, E62Q, S66G, F102Y, I108L
VL: B5 VL with S26T, I33L, Y50F, M54L, H55Q, S97T
notes: also called AB200 kappa variant 6; AB200_Vk6_Fab
B38: AB200-R1a-Fab_Vk29 (Fab, V domains shown)
VH: B1 VH with T30S, I34M, G50A, S54G, E62Q, S66G, F102Y, I108L
VL: B5 VL with Q27H, I29V, I33L, M54L, K93R, S97T
B39: AB200-R1a-Fab_Vk7 (Fab, V domains shown)
VH: B1 VH with T30S, I34M, G50A, S54G, E62Q, S66G, F102Y, I108L
VL: B5 VL with Y32F, I33L, M54L, Y91F, L94M, S97T
B40: AB200-R1a-Fab_Vk33 (Fab, V domains shown)
VH: B1 VH with T30S, I34M, G50A, S54G, E62Q, S66G, F102Y, I108L
VL: B5 VL with N31S, I33L, Y50F, M54L, Y91S, S97T
B41: AB200-R1a-Fab_Vk8 (Fab, V domains shown)
VH: B1 VH with T30S, I34M, G50A, S54G, E62Q, S66G, F102Y, I108L
VL: B5 VL with I33L, M54L, H55Q, Q89H, Y91S, S97T

Molecular target: T2, extracellular domain of rhesus monkey BCMA (rhesus monkey, UniProt F7FFA0 1-53)
T2 construct: extracellular domain; also called RhBCMA
T2 sequence (F7FFA0 entry or part of it): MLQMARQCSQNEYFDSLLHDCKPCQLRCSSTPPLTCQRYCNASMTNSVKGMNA
Experiment: Octet BLI; Fab 200 nM

Binder	Kd
B1	10.4 nM
B2	55.6 nM
B3	540 nM
B4	18.4 nM

Molecular target: T1, extracellular domain of human BCMA
Experiment: Octet BLI; Fab 200 nM

Binder	Kd
B1	3.65 nM
B2	25 nM
B3	319 nM
B4	13 nM

Molecular target: T2, extracellular domain of rhesus monkey …
Experiment: Octet BLI; Fab 200 nM
Remark: another data set of the same source

Binder	Kd
B5	6.21 nM
B6	16.8 nM
B7	61.4 nM
B8	5.3 nM
B9	7.57 nM
B10	11 nM
B11	9.91 nM
B12	17.9 nM
B13	5.06 nM
B14	29.7 nM
B15	18.9 nM
B16	5.74 nM
B17	7.71 nM
B18	113 nM
B19	13.6 nM
B20	44.7 nM
B21	14.9 nM
B22	24.6 nM
B23	74.7 nM

Binder	Kd
B24	8.03 nM
B25	7.9 nM
B26	5.74 nM
B27	195 nM
B28	14.2 nM
B29	11.5 nM
B30	27.5 nM
B31	4.78 nM
B32	13.5 nM
B33	12.9 nM
B34	10.7 nM
B35	9.71 nM
B36	8.96 nM
B37	4.26 nM
B38	4.96 nM
B39	25.1 nM
B40	37.4 nM
B41	42.1 nM

Molecular target: T1, extracellular domain of human BCMA
Experiment: Octet BLI; Fab 200 nM
Remark: another data set of the same source

Binder	Kd
B5	1.84 nM
B6	4.89 nM
B7	32.7 nM
B8	1.58 nM
B9	4.87 nM
B10	2.93 nM
B11	2.48 nM
B12	5.56 nM
B13	1.43 nM
B14	16.8 nM
B15	7.3 nM
B16	1.53 nM
B17	4.45 nM
B18	82.8 nM
B19	3.44 nM
B20	11.7 nM
B21	4.27 nM
B22	7.14 nM
B23	26.5 nM

Binder	Kd
B24	2.04 nM
B25	2.2 nM
B26	2.07 nM
B27	110 nM
B28	5.11 nM
B29	4.03 nM
B30	7.83 nM
B31	1.56 nM
B32	12.8 nM
B33	3.18 nM
B34	6.39 nM
B35	2.93 nM
B36	2.36 nM
B37	1.11 nM
B38	1.55 nM
B39	14.7 nM
B40	19.5 nM
B41	24.1 nM
